Data: a protein production outcome set (Wang et al. 2014)

Experiment: label from the status in PepcDB records

Row | Sequence | protein production
1 | MFFLLLTPFNAAASETNSDDATADAKNLSGTNAADTVVSQIIGASVYIEGEIYNNEYATISVTTKNEGDKSSEGHIIVAFPNNEEILSKEGSGDRVDIYPSGSSIETKDGTKIDSSEYLFVDLVKYDWETGKNETLNLKVKPNKGSEEIVYLVRAELMNDATGDYERYPGILSESSDVDQQGWYVYNNSFGVSGDPDLMIEDISWEPENPHENENVTFKVTLKNVGLASSGNCSVKCYLDGNEISFSTVSGLEADSTTSFTFNWVPTSSGSMDLKVVVDSEGQFVEFTEENNEKTGIFKVISYTNSSSPSSPSPGSGSSSSSSSSGGGAGGSPEPASNVEIKELAQQFVSNGNHAKFIFAKNVTSIAYIEFDPKKTVGKTTTIVETLKGKSTLVTELPTGKVYKNTNIWVGNEGTASSENIENAVVGFKVEKTWINSNGVDSSSVKLWAFEDEKWVELPTSQTDEDEDYVYYEADTPGFASFSIMALYPEENTEGTSLPLGSYVEDKDTKAVSETSEEESEVVDSEAGENNSGSMKKGLLAIGMLAAVILAGYVISRKQD | failed
2 | MFFLSDHDTLISSIEAIGASFAVFEFDPQSVAFELVSCNSRYEDLMGYSSAKALGQPLTTIFPRYIHNPLKEAFIHCKNERIALETEIVLDYKGQERCWRSIVSPIVNSADEKFRIIQTCVEITEKKVLEKQLNLSMKRFEAVVNNAYDGIITIDEQQNVKLFNEAAQSMFGYSEQEIMGQPLTKLLPEKYQAKHHGYVEGFKRSQVDSRPMQTRAAVQGLRKDGSEFAIEVTISKIRIADNVEFTAVIRDISEKNQLLEELILSSRRDPLTELYNRRYFTELLHSEITRSRRFKRGFSLLMLDIDHFKSINDRYGHACGDAALIAFSKAVTNSIREVDTICRWGGEEFLVLLPEIPKVTAMVVAEKIRKNIENLETIYEGDLIKVTVSIGLEYFSGDAIEMSSMINKVDQILYRAKDTGRNKISTEI | failed
3 | MFFSKLFRKDAASCLEKGEKLLAAGRFAEARLSLEDALERLDAHSPEGATTAAVIREKMVVAGNRLAEMNLQEAEHCLKSGEFAKAEEHLNLTLDLADDVTIRDKAVKSFALLEKQIPHVHHHEKKGGCGGCGGSTSQHSENIELEDDGLNDMDRFELLVRPLPGDLPERYADLGEEFAGGYLAAHGGDQMTAEKVFERLLASGESDILLYELAILSHQGGDGRRCETLLRRALALNDTNPLCNLSLVQLLTENGRFTEAVPLLERMVERDILPDQAGMFLGEIYRVQGESDRAIAQFSQLLSTPLKREAAERLVGLLETTGRSQEAALVAKQYLKGCC | failed
4 | MFGAKKNNTKIIEQLEKKCNGLGDILRSIGNTMAVIEFTTDGVILEANQNFLTTMKYSLSEIKGKHHSMFCLPEVVNSSAYSDFWKDLRDGKARSGLFRRIAKGGIDVYLEANYLPISDNNGYVYKIIKFANDITQRHYEMLDLRNTIAAANRSMAIIEFKPDGTIITANENFLRAMDFNIDEIKGKHHSMFCDSNYRHSKDYVQFWEDLREGKFQSGKYIRYGRNNKKVYLEASYNPVKNDDGKIYKVIKFATDISEQVKKDQEKLRLISELAEKNDNLTQDGDRVIENTVSNVQNIADMMSQSSNLVSSLNQQSDEIKSIIQTISDIADQTNLLALNAAIEAARAGEHGRGFAVVADEVRNLAERTGHSVNEITTTINSIRNVTSQVVESIKSGLEDVNQSVELAKEARECMEKIRESSAEVAKAMS | failed
5 | MFGLEAIDLARIQFAFTVSFHIIFPAITIGLASYLAVLEGLWLKTNEEVYRDLYHFWSKIFAVNFGMGVVSGLVMAYQFGTNWSHFSDFAGSITGPLLTYEVLTAFFLEAGFLGVMLFGWNRVGPGLHFFATVMVAIGTLISTFWILASNSWMQTPQGFEIVDGRVIPVDWLAVIFNPSFPYRLLHMSVAAFLATAFFVGASAAWHLLRGRDNPAIRKMLSMAMWMALIVAPVQALIGDAHGLNTLEHQPAKIAAMEGHWDNSSGEPTPLILFGWPDMQREETRFKVEIPVLGSLILKHSLTEPIPALKDFPPEDRPNSTVVFWSFRIMAGLGMLMILVGVWSLWLRWRGQDKLFNSKAFLRLTLLMGPSGLIAILAGWFTTEMGRQPWVVYGLMRTADASSAQSVTQMSLTLLTFVVVYFSLFGVGIGYMMRLVRKGPVTHEGRETNPGGAGQKRTPARPLSAAGEGFDEEHDGHAQAADRDQDKRN | failed
6 | MFGLVDAVSFYARAEKVFDPSIRHKPVVVLTNNDGCICAVCPIARQLGVPKFVPYFKVKSFLAKHGVVVRSSNYELYADLSERMMNVIARYSDNHYVYSIDESFLHFKNFSCVDNWHEYGHVIRKAVWRETRLPVGVGFGATLTLAKAANHASKKLSGFDGVAVIDDKASRKEILSRMSLTEVWGIGSKLGKRLSILGLKNGWDLANQSPKAMRGQFGVVVERTVNELNGMPCLQWDEIGQDKQEIFSTRSFGQRVTDGHALKAALSSHASIVGAKVRRQGSLIKRLVIFASSSPHDDSYYKKSVIYEFPIATDNILKLVGAISYVFDNIYRQGVSFYRCGVGGVELENSQFQQQDMFSLSVNNPPLMKCYDQINHRYGRGAVEVAIAEKNEKWAMRRNFLSPRSTSNWSEIPKINCLEHHHHHH | failed
7 | MFHFSLSPRRTGRGARPRARLGAMLALAFLAGGLTAGPGNAAEGAGATAERQYCACMALARSRPDQAFEKAGQWKALGGGVPARHCEAVALLGLKEYGEAARRLEALAEDVKLARGLRVDLLTQAGQAWLAVGDLSRAYANQTTALQLAGARAQSGAPALSSVLPDLYIDRAVTLAQAGRDDEATTDLTKALALQPASVTALVLRASAQRRQGRLTAARADAEAAVKRAPNDAEARLERGDVRLALGDRDGARADWLKVLELAPREGAADAARARIETLDLKVR | failed
8 | MFIGGAIISFLFLFGYMWKEAHSNRIRHVTLSFPHFPDNGPPLTIFFISDIHRRSVSCRMLETVKGKADLVVIGGDLAEKGVPAARVRENVRRLQTVAPVYFVWGNNDDEVDYDLQSLLEEERVYVLKNKAEVWEHGGVPIALIGVGDVSRKEADIARALEHVPPESFRILACHNPAIIARLEDEQHISLVLSGHTHGGQIRLFSFGLYEKGGLKWHGNTALFTSNGYGTTGVPLRLGAPAETHLIKIVPGKLATEKKCLSKTGKTMLEHHHHHH | failed
9 | MFKALLPQSKQKLQHAKYFAKKMHQASASDQLQSHWHLQQWWILIAGFFLFGSVLVFAFTRPISSTKIEAEYLKEVDPQIYTLLNGEMLTPPPEVDESLISAAIVEANQLEQQYASQHSETNAPSASENLMHHNLIDTQFVDRKWDKMNPRYKQRLLMVFKIMKERYGYELVLLEGYRSPERQNLLSGNPNTTRARGYQSYHQFGLAADVAFKRNGKVVISERDPWAMRGYQLYGEVAESVGLTWGGRWKSIQDYGHTEYRMPGLRKTKEMAEQLIAEGQLTANAAS | failed
10 | MFKASHVLQGEDQTRSAAEFFPVISANYAVDEEAYLGELLQLADPGPDGIEAIRRNARALIETVRSRDNAVDTLDALLRQYSLDTQEGLMLMCLAEALLRVPDAATADALIRDKLSAADWQRHLGQSDNVLVNFAAWGLVMTGKVVNIDERTDGRAPSVISRLVQRSGEPVIRAAMNQAMKLMGKQFVLGRTISEALKNGRPCREQGYTYSFDMLGEAALTAADAEKYMADYRQAIDTVGAEPQVGPGPRPSISIKLSALHPRYEVAQRERVLSELFANVLELAVRARKLNVGITIDAEEADRLELSLELYEKLMRDPAIAGWGEFGLVIQAYSKRCLPVLVWLTLLGRELGARIPLRLVKGAYWDSEIKQCQVQGADGYPVYTRKEGTDTSYLACARYLLSEHTRGVIYPQFASHNAHTVTAILALADEARAAGGEERDFEFQRLHGMGDALYDTVIEKYRRNVRIYAPVGAHKDLLPYLVRRLLENGANSSFVHKLVDPRVPVETLIQHPVTQLRQFKTLANDRIPLPQAIFGAGRKNSQGINMNIQNQWNELELAYKPHLTRQWQAAPIVNGEKLSGPAHEVRCPYDLERLVGSVQYASAEQAGKALDVLQAAWPRWSATPVDERAGILERLADLLEAQRGELMALCTLEAGKSLQDGIDEIREAVDFCRYYAQQARQRLVREELRGPTGERNELFYEGRGIFACVSPWNFPLAIFLGQISAALVAGNTVLAKPAEQTSLIAARTVELMFEAGLPKDVIALLPGDGATLGGVFCRDARVAGVAFTGSTDTARIINRQLAEKPGAIATLIAETGGQNAMIVDSTALPEQVIKDAVQSAFTSAGQRCSALRVMYVQQDIAERVIELLKGAMAELKVGPTEVRVSDVGPVIDAEAKAGLEQHIAALKAAGKLIAETKVPGNLNGHFVAPVAFEISGIDELKKENFGPVLHVVRYAAQDLEKVVQAINATGFGLTMGVHSRNEETARRIEELARVGNLYINRNQIGAVVGVQPFGGHGLSGTGPKAGGPNYLLRFVSERTTSVNTTAVGGNA | failed
11 | MFKHCLICTDFSDGLQRLAGFVEELSLSGITKLIFLHTVSVWEDEHIADVDESKLKEAKTYLESLVGQVPPGIEVKVEVSSVRYVDLVNQLVEQEAIDLIINGMPVRSNLESKLFGSHTLSLAKSTKVPVMILRPQLVSTYTVEEMALRCQHLWRNLLVPYDASSAGNYLIERLKSALEKAPPGKVESCYFLSILEDGMRRPELLEIRRQEAEAKLAEIKQQFSPLVPNIITEVRHGSPVQEILDTAFVNDITAIAVASRRATLLDWTVPSLTDSILNRSWFPLLFFSPKG | failed
12 | MFKIYNNGNPIPMGYSQAVENNVQITNFALFSAAAIGVELCLFDEQNQETRLPMVRTENVWHLAVTGVKTGTEYAFRIHGEFANPQKLILDPYAKAVNGKPDLSSEESRSWFLLSDNRDNAHLAPRAVVIS | failed
13 | MFKKGVVPSQGLRIIIVGCGKVGRTLVEQLGKEGHDITIIDKNRERISQVSNIYDVMGIAGNGASYKILQEAGIDDADLIIAVTGSDELNLLCCTIATQVGNCAAIARVRTPEYSQEAKYLRDKLGLALIINPELEAAIEMAHILHLPSSLEVTNFAHGQAQLIKYEIPEGSILDGTKLMDLGTRHHANILIGAVERDDEVTIPSGDFVLRKGDKLSFVGERRHTKEFFSHIGVNTHSVKNTLIIGGGKAAYYLAKQLISRGIKVKIIENSFERCEELSILLPDAVIINGDGTEQALLKEEGIETCQSFVPLTGIDEENIMLTLYAKQVSNAKVITKLNRITFTNVINSLDLGSVISPKYITSEAIIAYVRAKKNSMNCNIETLYHMYDSRVEAIEFFVSENSNVTDIPLRDLKLKKHLLICFINRNGKIIIPTGNDCIQKNDTVMIITTNTGFTNLQDIME | failed
14 | MFKKLLHSLFAGLTFMAAVAAVPAHAQEADAQTTVKTAVDDVLATIKGDSDLRSGNMQKVFQLVDQKIVPRADFKRTTQIAMGRFWSQATPEQQQQIQDGFKTLLVRTYAGALANVRNQTVSYKPFRAAADDTDVVVRSTVNNNGEPVALDYRMEKSANGWKVYDINISGLWLSETYKNQFAEVISKRGGVSGLVQFLDERNAQLAKGPAKLEHHHHHH | not failed
